Experimental findings from US20220064272A1 (TAUC3 BIOLOGICS, published 2022) are described below.

Residue numbers refer to the chain shown, from its start. “And” between values parts separate entries of the source, which are not always exact repeats. Equal entries are not always repeated.

Assay [1] deals with T1, TauC3 (C-terminally truncated tau fragment ending at aspartate 421 of htau40) (human, UniProt P10636 1-738).
T1 construct: Generated and purified by Genscript; also called Human TauC3; recombinant TauC3 protein
As to the kind of experiment: binding ELISA on coated TauC3, OD650. The method in brief:
(§1)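 Binding ELISA on coated TauC3 antigen, which was made and purified by Genscript. Chimeric or humanized IgG4κ antibodies were expressed in ExpiCHO cells. Binding was read as absorbance at 650 nm. EC50 was derived from the antibody concentration-response.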
In general terms: ELISA stands for enzyme-linked immunosorbent assay.

For assay [2], the target named is T1, TauC3 (C-terminally truncated tau …). As to the kind of experiment: Biacore off-rate ranking, TauC3 amine-coupled on CM5, one antibody concentration; two-phase decay fit, slow phase. On the set-up: unit not given here. As to the method:
(§2) To further evaluate the binding data observed on the Octet, an off-rate ranking experiment was performed on the Biacore 200 instrument. Biacore offers greater selectivity than the Octet and facilitated the immobilization of TauC3 onto a CM5 chip via amine coupling which stabilizes the antigen. This produces higher quality data with stable baselines and good reproducible responses. Once TauC3 is immobilized, one concentration (5 nM) of antibody is added, followed by a dissociation and regeneration step (Section 8.20). The off-rates were fitted using a two-phase decay model (FIG. 25B) or a one phase decay fitting only the second off-rate (FIG. 25A). The candidates were then ranked based on the off-rates obtained using the fits and compared. The data agreed with the Octet results (albeit with a different ranking order), highlighting Tau01 HMKM, HMKO, HMKP, HMKN and HMKE as the humanized variants with the slowest off-rates. The lack of binding of FL Tau to chimeric and a humanized candidate was also confirmed by Biacore by loading the antibody onto a Protein G chip and adding 250 nM FL Tau.

Assay [3] shares this target. As to the kind of experiment: Biacore off-rate ranking, TauC3 amine-coupled on CM5, one antibody concentration; one-phase exponential decay fit. Here is the method:
as §2

Assay [4] has the same target. As to the kind of experiment: binding ELISA on coated TauC3, OD650; right table (HM variants). Summed up:
as §1

Assay [5] shares this target. Briefly: binding ELISA on coated TauC3, OD650; left table (HC variants). The method in brief: as §1
The target is the same in assay [6]. Briefly: binding ELISA on coated TauC3, OD650. Summed up: as §1
The source holds these as a separate data set.

For assay [7] the target is unchanged. As to the kind of experiment: SPR (Biacore) kinetics, TauC3 amine-coupled on CM5, 1:1 global fit. Summed up: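 Surface plasmon resonance (Biacore) was used with purified TauC3 immobilised on a CM5 chip by amine coupling. A concentration series of each purified antibody was injected over the chip. Association rate, dissociation rate and Kd were obtained by a 1:1 global fit.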
For orientation: SPR reads the build-up and loss of mass on a sensor chip optically.

For assay [8] the target is unchanged. As to the kind of experiment: Biacore kinetics, TauC3 amine-coupled on CM5, antibody series, 1:1 global fit. The text has this: To determine the affinity of the binding interactions, a biacore kinetic assay was developed which involved immobilizing TauC3 on a CM5 chip via amine coupling and injecting a concentration series of the respective antibody over it.

T1 sequence (P10636 other isoform, or with tags, fused parts or gaps): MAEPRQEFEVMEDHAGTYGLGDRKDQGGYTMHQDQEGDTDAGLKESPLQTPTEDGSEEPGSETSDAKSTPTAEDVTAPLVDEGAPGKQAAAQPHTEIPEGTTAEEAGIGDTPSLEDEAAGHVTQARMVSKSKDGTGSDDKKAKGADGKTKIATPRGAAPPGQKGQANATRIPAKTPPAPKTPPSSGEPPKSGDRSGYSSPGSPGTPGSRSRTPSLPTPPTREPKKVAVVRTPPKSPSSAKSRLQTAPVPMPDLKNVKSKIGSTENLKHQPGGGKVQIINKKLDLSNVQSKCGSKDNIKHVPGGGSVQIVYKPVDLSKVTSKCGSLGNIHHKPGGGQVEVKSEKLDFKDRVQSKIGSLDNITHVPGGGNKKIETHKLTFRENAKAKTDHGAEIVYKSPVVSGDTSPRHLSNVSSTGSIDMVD

B1: HBKD (antibody, V domains shown)
VH: EVQVVESGGGLVQPGGSLKLSCAASGFTFNTYAMNWVRQASGKGLEWVARIRSKSNNYATYYADSVKGRFTISRDDSKSMVYLQMDSLKTEDTAVYYCVGGGDFWGQGTLVTVSS
VL: DIQMTQSPSSLSASVGDRVTITCRASQEISVYLSWYQQKPGKAPKRLIYGAFKLQSGVPSRFSGSRSGTEFTLTISSLQPEDFATYYCLQYVRYPWTFGGGTKVEIK
notes: humanized variant, HB with KD; also called Tau01 HBKD HuG4K
Broadly, the EC50 is the concentration at which the effect is half-maximal. B1 displayed an EC50 in assay [1] of 3.04 nM.

B2: HBKH (antibody, V domains shown)
VH: B1 VH
VL: B1 VL with S34G, T69S
notes: humanized variant, HB with KH; also called Tau01 HBKH HuG4K
Regarding B2, the EC50 in assay [1] turned out to be 0.807 nM.

B3: Tau01 HMKC (antibody, V domains shown)
VH: B1 VH with E1L, V4L, D64A, V81A
VL: B1 VL with Y36F, F71Y
notes: human IgG4 kappa (HuG4K)
Broadly, the koff is a measure of how fast the partners let go of each other. In the case of B3, the Kslow in assay [2] came out at 0.000711. For the same molecule, in assay [3], the koff came to 0.000843 s⁻¹. In addition, the EC50 in assay [4] is 0.433 nM and 0.718 nM.

B4: Tau01 HMKL (antibody, V domains shown)
VH: B1 VH with E1L, V4L, D64A, V81A
VL: B1 VL with Y36F, P44I, F71Y
notes: human IgG4 kappa (HuG4K)
Molecule B4 displayed an EC50 in assay [4] of 0.47 nM.

B5: Tau01 HBKJ (antibody, V domains shown)
VH: B1 VH
VL: B1 VL with S34G, K53S
notes: human IgG4 kappa (HuG4K)
With B5, in assay [1], the midpoint of the response, the EC50, lay at 0.811 nM.

B6: Tau01 HCKP (antibody, V domains shown)
VH: B1 VH with E1L, V4L, A49G, D64A, V81A
VL: B1 VL with S34G, Y36F, F71Y
notes: human IgG4 kappa (HuG4K)
For the molecule B6, in assay [5], the 50% effective concentration (EC50) worked out at 0.821 nM.

B7: HCKF (antibody, V domains shown)
VH: B1 VH with E1L, V4L, A49G, D64A, V81A
VL: B1 VL with S34G, P44I
notes: humanized variant, HC with KF; also called Tau01 HCKF HuG4K
On to B7, for which it took 2.25 nM to reach a half-maximal effect in assay [6] (EC50).

B8: Tau01 HBKG (antibody, V domains shown)
VH: B1 VH
VL: B1 VL with S34G, K53T
notes: human IgG4 kappa (HuG4K)
With B8, a half-maximal response in assay [1] (EC50) required 0.761 nM.

B9: Tau01 HBKI (antibody, V domains shown)
VH: B1 VH
VL: B1 VL with S34G, F71Y
notes: human IgG4 kappa (HuG4K)
B9 displayed an EC50 in assay [1] of 0.705 nM.

B10: Tau01 HCKO (antibody, V domains shown)
VH: B1 VH with E1L, V4L, A49G, D64A, V81A
VL: B1 VL with S34G, K53S, F71Y
notes: human IgG4 kappa (HuG4K)
Take B10: in assay [5], the concentration for a half-maximal effect (EC50) is 0.537 nM.

B11: Tau01 HBKE (antibody, V domains shown)
VH: B1 VH
VL: B1 VL with S34G, Y36F
notes: human IgG4 kappa (HuG4K)
As to B11, a half-maximal response in assay [1] (EC50) required 0.915 nM.

B12: HCKD (antibody, V domains shown)
VH: B1 VH with E1L, V4L, A49G, D64A, V81A
VL: B1 VL
notes: humanized variant, HC with KD; also called Tau01 HCKD HuG4K
As to B12, the EC50 in assay [6] is 2.02 nM.

B13: Tau01 HCKL (antibody, V domains shown)
VH: B1 VH with E1L, V4L, A49G, D64A, V81A
VL: B1 VL with Y36F, P44I, F71Y
notes: human IgG4 kappa (HuG4K)
In assay [5], B13 returned a concentration for a half-maximal effect (EC50) of 0.835 nM.

B14: HBKF (antibody, V domains shown)
VH: B1 VH
VL: B1 VL with S34G, P44I
notes: humanized variant, HB with KF; also called Tau01 HBKF HuG4K
Take B14: a half-maximal response in assay [1] (EC50) required 0.786 nM.

B15: Tau01 HMKM HuG4k (antibody, V domains shown)
VH: B1 VH with E1L, V4L, D64A, V81A
VL: B1 VL with Y36F, P44I, K53S, F71Y
notes: human IgG4 kappa (HuG4K)
Usually Kd stands for a measure of binding affinity in units of concentration. In general, kon refers to the rate constant with which the complex forms. Consider B15, for which, in assay [2], the Kslow amounted to 0.000553. For the same molecule, the off-rate constant (koff) in assay [3] was 0.000264 s⁻¹. Further, in assay [7], binding was characterised by a dissociation constant (Kd) of 0.11 nM, the off-rate (koff) came to 0.0181 s⁻¹ and the kon was found to be 1.65e+08 M⁻¹ s⁻¹. Also, the koff in assay [8] amounted to 0.0181 s⁻¹.

B16: Tau01 HCKN (antibody, V domains shown)
VH: B1 VH with E1L, V4L, A49G, D64A, V81A
VL: B1 VL with S34G, K53T, F71Y
notes: human IgG4 kappa (HuG4K)
Take B16: in assay [5], the EC50 was 0.574 nM.
